Blank lines part the entries; values can stand above or below the molecule they belong to.
How the values were obtained:
GST-SV40NLS (SV40) = experiment: ELISA
[1] = molecular target: Myc-PK-SV40NLS (not stated | SV40); experiment: SEC
Myc-PK-TprNLS = experiment: SEC
[2] = molecular target: Recombinant KPNA2/Importin-β (UniProt P52292;Q14974); experiment: ELISA
Chain of Recombinant KPNA2/Importin-β (UniProt P52292;Q14974) (Q14974 whole entry, one chain of several): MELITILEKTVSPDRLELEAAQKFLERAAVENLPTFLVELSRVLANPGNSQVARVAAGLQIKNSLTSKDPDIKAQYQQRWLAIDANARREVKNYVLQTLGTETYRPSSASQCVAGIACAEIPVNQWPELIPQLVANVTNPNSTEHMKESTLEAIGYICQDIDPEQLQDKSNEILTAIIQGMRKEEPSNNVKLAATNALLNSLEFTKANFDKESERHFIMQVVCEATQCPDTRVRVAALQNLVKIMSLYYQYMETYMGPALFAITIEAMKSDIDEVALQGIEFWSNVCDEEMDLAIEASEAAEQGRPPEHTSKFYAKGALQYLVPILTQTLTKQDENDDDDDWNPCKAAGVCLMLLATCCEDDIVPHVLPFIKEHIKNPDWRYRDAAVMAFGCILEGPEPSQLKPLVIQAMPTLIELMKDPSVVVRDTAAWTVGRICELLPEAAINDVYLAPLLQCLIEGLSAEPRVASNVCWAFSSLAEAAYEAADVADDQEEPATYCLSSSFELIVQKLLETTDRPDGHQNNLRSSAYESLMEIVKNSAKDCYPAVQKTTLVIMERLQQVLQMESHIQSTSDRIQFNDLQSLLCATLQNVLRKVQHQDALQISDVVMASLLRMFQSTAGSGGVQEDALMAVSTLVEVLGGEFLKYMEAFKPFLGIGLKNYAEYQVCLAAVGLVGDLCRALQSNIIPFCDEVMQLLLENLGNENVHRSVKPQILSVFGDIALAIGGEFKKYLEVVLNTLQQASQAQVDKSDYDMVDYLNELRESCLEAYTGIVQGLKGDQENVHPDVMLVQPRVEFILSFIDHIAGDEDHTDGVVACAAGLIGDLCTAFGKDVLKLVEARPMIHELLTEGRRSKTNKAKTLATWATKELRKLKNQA

Molecule: Recombinant KPNA2/Importin-β (from UniProt P52292;Q14974) (complex)
Kd (GST-SV40NLS (SV40)): 10.5 nM

Molecule: Myc-PK-SV40NLS
stoichiometry N [1]: 4

stoichiometry N (Myc-PK-TprNLS): 4
Molecule: Myc-PK-TprNLS

Kd [2]: 3.2 nM
B1: GST-TprNLS (domain or fragment)
chain: STAVFGTVSATPSSSLPKRTREEEEDSTIEASDQVSDDTVEMPLPKKLKSVTPVGT

— publication PMC3653351 (The Journal of Cell Biology, 2013)
